Data: the DeepSol protein solubility set

Test: soluble on expression in E. coli; label from the status in PepcDB or PDB records

| Sequence | soluble on expression in E. coli |
| --- | --- |
| MDPNQPVKFTEFMPDSGGIRTKFIVKGSNFGEDKSQVKVYFKDEVGNEREALVLGVKPDVIYAQVPKQAGGESHVRVEIAGKEAELSNAEKTFKYIVTSSVSTVVGKAKEGGNKDGTLGETTFNTPRYVAVDNDDNVFIFDSDGRTRLSSIEQNKTITLLDGMVIDQPLFIDKEKKQLFGPCDNANFGCFLFDANVSWVADKMGQLLANGGWMHSVVLDPVDSTFVIYRQNTGQLWTQPFDKNRRTLNPNKAKRIGTLYNTGSNGLCAYNPVDKYVYCVLHSKSAVYRFKLTRDADGWPALDGDIDEYIPGAGAGFRDGDVQEAQFKEPRGIAIDKEGNLYIADVGNNRIRKVDTKLNVVTTIAGSGAAGYKDGDPLEAQFNQPWGVYLDKNEFLYIADQNNHCIRKLAIELEHHHHHH | not soluble |
| MSIIIENSGLFSSFQDFGRKGYEHEGVIPSGALDELAHEIANRLVANDKNEATLEMTQKMATIRFTEPALIALTGGNFKAETEHMKIYPNKLYLINEGETLKFNETSRTSRVYLAVGGGFKLEKWLHSASTDFNVEIGGFEGRKLKKGDEIELKHHYSQRHLKLFENLSDKRTTDWGIDGYALSFNYVSDVFHVIKNKGTEDFKKEATRRFTTAEYSVSSKTNRVGMVLDGPQIKAYYDDMPAHQSVKRGTIQVKRDGTPIVLLNDHYTLGSYPQIGTIASYHLTKLAQKPQGSKLKFQFIDIETAEKNLIKYSNWLNQLFHGIEHRMQLEMLKMAGDPLEHHHHHH | not soluble |
| KRGPSAVTVVTEQVETHEINQSLSLIGKLKAAESVVVASEVAGKVKQIAVKANQNVQQNQLLIQLDDDKAQAALVEAKAYLKDEERKLKEFQRLVKRNAITQTEIDAQKASVEIAQARLDAAKANLADLHITAPFSGTVGFIDFSRGKMVSAGTELLTLDDLSVMELDLQIPERYLSMLSVGMEVAAKTSAWGEQRFSGKVTGIDTRISAETLNLRVRIEFDNPENQLKPG | not soluble |
| MVVGDFPIETDTIVIGAGPGGYVAAIRAAQLGQKVTIVEKGNLGGVCLNVGCIPSKALLHASHRFVEAQHSENLGVIAESVSLNFQKVQEFKSSVVNKLTGGVEGLLKGNKVNIVKGEAYFVDNNSLRVMDEKSAQTYNFKNAIIATGSRPIEIPNFKFGKRVIDSTGALNLQEVPGKLVVVGGGYIGSELGTAFANFGSEVTILEGAKDILGGFEKQMTQPVKKGMKEKGVEIVTEAMAKSAEETDNGVKVTYEAKGEEKTIEADYVLVTVGRRPNTDELGLEELGVKFADRGLLEVDKQSRTSISNIYAIGDIVPGLPLAHKASYEAKVAAEAIDGQAAEVDYIGMPAVCFTEPELATVGYSEAQAKEEGLAIKASKFPYAANGRALSLDDTNGFVKLITLKEDDTLIGAQVVGTGASDIISELGLAIEAGMNAEDIALTIHAHPTLGEMTMEAAEKAIGYPIHTM | not soluble |
| MCASFSPTLDSRSRQLLRTLISCYIQNGEPIGSKTLAQQAGLDISPATIRNILADLEELGLLNSPHTSAGRVPTAHGYRMFVDSLVQMQPPSEDDIRRLRVEMTGGGTQTLLGSASEILSAMTHFVGVVSAPRREQFVFRHIDFVPLDARQIMAILIFADNEVQNRVIEPRRVYEPGELERVSNYLNAHFIGRTLADIRTTVLCELRKAKDEMEQLLAHSLDLASQMLVPNDSEDIVVTGQTRLMALQDLSDMDRLRELFEIFASKREILQLLERTIDAPGVRIFIGEETGMVSMEDISLVTAPYAAHGQVLGVLGVIGPKRMAYDRVIPLVQVVAQVLGTALEPPTMP | not soluble |
| MPLFKRRDGSGPAPNATIREKYDFRDVLGTGAFSKVFLAESKSDAGQMYAVKCIDKKALKGKEESLENEIKVLRKLRHNNIVQLFDTYDEKQFVYLVMELVTGGELFDRIVAKGSYTEQDASNLIRQVLEAVGFMHDNGVVHRDLKPENLLYYNQDEDSKIMISDFGLSKTEDSGVMATACGTPGYVAPEVLQQKPYGKAVDVWSIGVIAYILLCGYPPFYDESDANLFAQIIKGEYEFDAPYWDQISDSAKDFITHLMCCDPEARFTCQDALSHPWISGNTAYTHDIHGTVAVHLKKSLAKRNWKKAYNAAAAIRQLQMLRLSSNSNRLQKQASQQQPEPPTPAFHA | soluble |
| MSLAQTNQAEVGEPAPNFTLQAADGDEHSLADFEGQYVVLEWLNFGCPFVGKHYGSGNMQRLQDTYTDEGVVWLSIVSSAPGKQGYYPPGEMVEQKKKHDGNMTAILMDPEGEVGKTYDATVTPHMYVISPEGELLYRGGIDDKPTTDEADIEGATNYVRMALDAAMNGEEVRPKRAEPYGCTIKYASKEGHHHHHH | soluble |
| GMTARNILSYSYEEYVEKITAFHGYPAPGVLIGGFMVDLAVKNLPEGILYDAICETRTCLPDAVQLLTPCTFGNGWLTVLPMGLFAVSLYDKFTGEGVRVFLDVEKMGPWQEIRNWFLKLKTKKEQDSERLFKEIREAGPDILELRNVKLKPGFLEKKHKGKIVLCPQCREAYPAQDGELCLSCQGGSPYL | soluble |
| MVKSQPILRYILRGIPAIAVAVLLSACSTTTNTAKNMHSETHAVGNSDSSSLQASQDEFENMVRNLDVKSRIMDQYADWKGVRYRLGGSTKKGVDCSSFVQRTFREQFGLELPRSTYEQQEMGKAVSRNNLRTGDLVLFRAGSTGRHVGIYIGNNQFVHASTSSGVIISSMNEPYWKKRYNEARRVLSRS | not soluble |
| MIYSMTAYARKEVKGNWGSAVWEIRSVNQRYLETYFRMPEQFRALEPVLRERFRKRLARGKVECSLRFEANPAAKAELSINEALATQVIKAAEQVMHMTGELSRINPFQVMQWPGVMETPEQNMDEVNKELLAAFDEAISEFIEARGREGDNMKALIEQRLDAITAEVVKVRARMPEILEWQRERLFSKFEDAKIELDASRVEQELILLAQKSDVAEELDRLDSHVKETTNILKKGGAVGRRLDFMMQEFNRESNTLASKSISTDITASGVELKVLIEQMREQIQNIE | not soluble |
| GMTQDNASGDQVSKQHKAFLRKLYLAHLMDDARHNLLSLGKLTGMPRRTLQDAIASFADIGIEVEFVQDGERHNAGYYRIRTWGPISSAWMDTHVDEVKSLLGVDDAVGQATAGNGA | soluble |
| MAQSKLYPVVMAGGSGSRLWPLSRVLYPKQFLCLKGDLTMLQTTICRLNGVECESPVVICNEQHRFIVAEQLRQLNKLTENIILEPAGRNTAPAIALAALAAKRHSPENDPLMLVLAADHVIADEDAFRAAVRNAMPYAEAGKLVTFGIVPDLPETGYGYIRRGEVSAGEQDTVAFEVAQFVEKPNLETAQAYVASGEYYWNSGMFLFRAGRYLEELKKYRPDILDACEKAMSAVDPDLDFIRVDEEAFLACPEESVDYAVMERTADAVVVPMDAGWSDVGSWSSLWEISAHTAEGNVCHGDVINHKTENSYVYAESGLVTTVGVKDLVVVQTKDAVLIADRNAVQDVKKVVEQIKADGRHEHRVHREVYRPWGKYDSIDAGDRYQVKRITVKPGEGLSVQMHHHRAEHWVVVAGTAKVTIDGDIKLLGENESIYIPLGATHCLENPGKIPLDLIEVRSGSYLEEDDVVRFADRYGRV | soluble |
| MSLKFYEDGNIPEIPNMYFIYGDGGTGKTSLLKQLKGHKFVFSFDMSSNVLIGDKDVDVVIFEHNDAPNIQAMVEECIIRAIQNAKYQVIVLDNVTALQNLVLENIDNAAKDNRQNYQKLQLWFRDLGTILKESGKTIYATAHQLDNGSSGISGEGRFQADMNEKTFNAFTSMFDLVGRIYLAAGERMIDLDPEKGNHAKNRLDDRKLIKANELIQSEKGEGHHHHHH | soluble |
| SNAMRKDETSNTSPDISVAQPASALRYHLRPPRRNDGAAIHQLVSECPPLDLNSLYAYLLLCEHHAHTCVVAESPGGRIDGFVSAYLLPTRPDVLFVWQVAVHSRARGHRLGRAMLGHILERQECRHVRHLETTVGPDNQASRRTFAGLAGERGAHVSEQPFFDRQAFGGADHDDEMLLRIGPFTHPPH | soluble |
| MGSDKIHHHHHHMSDYNFAYLDEQTKRMIRRAILKGLAIPGYQVPFASREMPMPYGWGTGGVQVSAAALTPDDTFKVIDQGADDTTNAVSIRKFFERTAGVATTEETEKASIIQTRHRIPEADLREDQILVYQVPIPEPLRFLEPRETETRKMHALEEYGLMHVKLYEDISQHGAIATSYAYPVKVEGRYVMDPSPIPKFDNPKMEMAAIQLFGAGREQRIYAVPPYTKVVSLDFEDYPFEATKAEHPCDLCAAEDSYLDEVIVDDQGGRMFVCSDTDYCRSRREAGHVGRLGQNAPLNTGPEAA | not soluble |
